US20160116469A1 (INSTITUTE OF ARTHRITIS RESEARCH, published 2016)

Target: human TLR4 (human, UniProt O00206 24-839)
Assay: cell-based or functional assay

Sequence of human TLR4 (O00206 24-839): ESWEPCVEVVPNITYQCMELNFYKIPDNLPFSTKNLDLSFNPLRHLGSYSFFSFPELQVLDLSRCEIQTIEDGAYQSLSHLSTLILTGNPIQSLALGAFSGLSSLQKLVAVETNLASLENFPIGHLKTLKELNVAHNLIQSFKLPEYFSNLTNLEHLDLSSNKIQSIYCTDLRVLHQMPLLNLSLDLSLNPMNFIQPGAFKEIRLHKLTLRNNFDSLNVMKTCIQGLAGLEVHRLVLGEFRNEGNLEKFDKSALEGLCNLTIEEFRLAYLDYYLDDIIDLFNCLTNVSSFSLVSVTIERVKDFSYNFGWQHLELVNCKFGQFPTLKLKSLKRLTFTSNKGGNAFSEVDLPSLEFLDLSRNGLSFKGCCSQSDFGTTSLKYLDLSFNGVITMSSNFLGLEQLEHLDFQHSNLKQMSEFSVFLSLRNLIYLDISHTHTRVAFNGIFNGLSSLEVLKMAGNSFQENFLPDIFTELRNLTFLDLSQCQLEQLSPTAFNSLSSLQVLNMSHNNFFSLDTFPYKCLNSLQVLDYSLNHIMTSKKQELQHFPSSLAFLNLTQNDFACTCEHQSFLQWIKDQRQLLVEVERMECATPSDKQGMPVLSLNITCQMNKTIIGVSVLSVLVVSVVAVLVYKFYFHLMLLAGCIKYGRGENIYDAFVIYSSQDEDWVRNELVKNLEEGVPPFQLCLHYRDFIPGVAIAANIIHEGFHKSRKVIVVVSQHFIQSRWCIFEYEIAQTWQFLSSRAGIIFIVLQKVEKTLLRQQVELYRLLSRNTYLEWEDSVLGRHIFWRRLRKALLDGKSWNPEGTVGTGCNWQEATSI

NF-κB-driven SEAP reporter, human TLR4-transfected HEK293 cells, response relative to E. coli K12 LPS at 100 ng/ml: 10 % of the response to E. coli K12 LPS
Binder: KSIAYLQMNSLK [PeptideX2]
